Among the data in publication PMC11641334, “The Effect of CBM1 and Linker on the Oxidase, Peroxidase and Monooxygenase Activities of AA9 LPMOs: Insight into Their Correlation with the Nature of Reductants and Crystallinity of Celluloses” (International Journal of Molecular Sciences, 2024) are Km and kcat values, retold here.

One series concerns the target T1, NcLPMO9C∆CBM (Neurospora crassa, UniProt Q7SHI8).
T1 construct: gene gh61-3; Pichia pastoris X33, copper-saturated
Briefly: peroxidase assay, absorbance at […] nm (coerulignone), Michaelis-Menten fit. The class given is biochemical. As to conditions: 5 mM H2O2 co-substrate; copper-saturated enzyme 1 µM; 100 mM sodium phosphate pH 6.0; 37 °C; read-out: 2,6-DMP / Km.

Substrate in series [1]: COc1cccc(OC)c1O
As to the kind of experiment: purified protein. Format: biochemical, Aspergillus oryzae. As to conditions: 5 mM H2O2 co-substrate, copper-saturated enzyme 1 µM, 100 mM sodium phosphate pH 6.0, 37 °C.

Substrate in series [2]: COc1cccc(OC)c1O
Briefly: purified protein. As to conditions: 5 mM H2O2 co-substrate, copper-saturated enzyme 1 µM, 100 mM sodium phosphate pH 6.0, 37 °C. Format: biochemical, Neurospora crassa.

For `COc1cccc(OC)c1O` [2,6-DMP], at NcLPMO9C∆CBM, the Km turned out to be 1280 ± 120 µM.

B1: AoLPMO9A (Aspergillus oryzae RIB40) (protein)
chain: HGYVSGVVIDGQYYGGYLVDKYAYSDNAPDTIGWTTSATDLGFVDGTGYQSPDIICHKDGAPGALTAEVAAGGKIELQWTEWPESHHGPVLNYLAPCGGECSAVDKTTLEFFKIEAKGLIDGTTPPGQWATDDLISNNNSYTVTIPTSIQEGNYVLRHEIIGLHSAGQKDGAQNYPQCINIKVTGGGDATPAGTAGEALYKDTDAGILFDIYSDLSGGYPIPGPEVFSA
notes: wild type, C1/C4-oxidizing, no CBM1; Pichia pastoris X33, N-glycosylated, Ni-NTA, copper-saturated
The term kcat denotes the maximal rate divided by the concentration of active sites. B1: in “purified protein [1]”, the Km is 1760 ± 310 µM and the kcat is 1.48 ± 0.09 s⁻¹.

B2: AoLPMO9B (Aspergillus oryzae RIB40) (protein)
chain: HGHVSNIVINGVYYEGFDINSFPYMGESAPTVAAWTTPNTGNGPLAPDDYSSPDIICHQNATAGKGYVEVNAGDRISLQWTPWPESHHGPVVDYLARCEPNCASVDKTSLEFFKIDGVGIVDGSSVPGVWGDDQLIQNNNTWLVEIPKSIAPGYYVLRHELIALHSAGTEGGAQNYPSCFNLKVNGEGTDKPAGVVGTELYTPTGDGIIFNIYQTVSEYPVPGPTLYSGAATGVTQAASTVTSTGTALTVGAAATTPASGSGASSSAAPSSSAAATPSSSAAPSSSAAARR
notes: as for B1
B2: in the series “purified protein [1]”, the Km is 1550 ± 140 µM and the kcat stood at 1.33 ± 0.04 s⁻¹.

B3: NcLPMO9C (Neurospora crassa OR74A) (protein)
chain: HTIFQKVSVNGADQGQLKGIRAPANNNPVTDVMSSDIICNAVTMKDSNVLTVPAGAKVGHFWGHEIGGAAGPNDADNPIAASHKGPIMVYLAKVDNAATTGTSGLKWFKVAEAGLSNGKWAVDDLIANNGWSYFDMPTCIAPGQYLMRAELIALHNAGSQAGAQFYIGCAQINVTGGGSASPSNTVSFPGAYSASDPGILINIYGGSGKTDNGGKPYQIPGPALFTCPAGGSGGSSPAPATTASTPKPTSASAPKPVSTTASTPKPTNGSGSGTGAAHSTKCGGSKPAATTKASNPQPTNGGNSAVRAAALYGQCGGKGWTGPTSCASGTCKFSNDWYSQCLP
notes: wild type with 79-residue linker and CBM1, C4-oxidizing; Pichia pastoris X33, N-glycosylated, Ni-NTA, copper-saturated
On to B3, for which, in “purified protein [2]”, the Km is 940 ± 90 µM and the kcat amounted to 0.58 ± 0.02 s⁻¹.
